Common to all, as to assay: ITC
Test [1] has as its target T1, human RAP1RCT (RAP1 C-terminal RCT domain, residues 303-399) (human, UniProt Q9NYB0 303-399).
T1 sequence (looked up): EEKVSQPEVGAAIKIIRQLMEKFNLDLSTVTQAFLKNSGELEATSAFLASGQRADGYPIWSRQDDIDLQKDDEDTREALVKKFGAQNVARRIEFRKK

The target of test [2] is T2, S. cerevisiae ScRap1RCT (ScRap1 residues 679-827) (S. cerevisiae, UniProt P11938 679-827).
T2 sequence (looked up): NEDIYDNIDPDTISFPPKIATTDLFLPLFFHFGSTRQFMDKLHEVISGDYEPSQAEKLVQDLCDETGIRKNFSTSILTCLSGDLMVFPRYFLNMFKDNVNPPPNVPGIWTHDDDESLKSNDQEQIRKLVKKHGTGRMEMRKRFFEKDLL

The target in the next test is T3, SpRap1RCT V651R (S. pombe, UniProt Q96TL7 639-693, V651R).
T3 sequence (looked up): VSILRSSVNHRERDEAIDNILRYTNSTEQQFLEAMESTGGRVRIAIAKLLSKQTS

The target in test [3] is T4, S. pombe SpRap1RCT (SpRap1 residues 639-693) (S. pombe, UniProt Q96TL7 639-693).
T4 sequence (looked up): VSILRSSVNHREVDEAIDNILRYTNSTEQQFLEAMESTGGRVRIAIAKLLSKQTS

Molecule QLRNPPTTIGMMTLKAAFKTLSGAQDSEAAFAKLDQKDLVLP (domain or fragment) [human TRF2RBM (RAP1-binding motif, TRF2 residues 275-316)] had a Kd in test [1] of 16.5 nM. Regarding EKGNAKMIDFATLSKLKKKYQIILDR (peptide, UniProt P06701 456-481, looked up) [S. cerevisiae Sir3RBM (Sir3 residues 456-481)], the Kd in test [2] was around 1800 nM. With LSVKGMLYDSDSQQILNRLRERVSGSTAQSAD (domain or fragment, UniProt P79005 365-396, looked up) [S. pombe Taz1RBM (Taz1 residues 365-396)], in the test with SpRap1RCT V651R, the binding result was “binds”. Moreover, in test [3], the affinity, expressed as Kd, was 2000 nM. In the case of LSVKGMLYDSDSQQILNRLRERRSGSTAQSAD (domain or fragment, S. pombe, UniProt P79005 365-396, looked up) [Taz1RBM V387R], in test [3], the binding result is reported as “binds”.

Turning to LSVKGMLYDSDSQQIRNRLRERVSGSTAQSAD (domain or fragment, S. pombe, UniProt P79005 365-396, looked up) [Taz1RBM L380R], the binding result in test [3] is “binds”.

B1: full-length TRF2 protein (natural protein)
chain: MAGGGGSSDGSGRAAGRRASRSSGRARRGRHEPGLGGPAERGAGEARLEEAVNRWVLKFYFHEALRAFRGSRYGDFRQIRDIMQALLVRPLGKEHTVSRLLRVMQCLSRIEEGENLDCSFDMEAELTPLESAINVLEMIKTEFTLTEAVVESSRKLVKEAAVIICIKNKEFEKASKILKKHMSKDPTTQKLRNDLLNIIREKNLAHPVIQNFSYETFQQKMLRFLESHLDDAEPYLLTMAKKALKSESAASSTGKEDKQPAPGPVEKPPREPARQLRNPPTTIGMMTLKAAFKTLSGAQDSEAAFAKLDQKDLVLPTQALPASPALKNKRPRKDENESSAPADGEGGSELQPKNKRMTISRLVLEEDSQSTEPSAGLNSSQEAASAPPSKPTVLNQPLPGEKNPKVPKGKWNSSNGVEEKETWVEEDELFQVQAAPDEDSTTNITKKQKWTVEESEWVKAGVQKYGEGNWAAISKNYPFVNRTAVMIKDRWRTMKRLGMN
In test [1], B1 returned a Kd of 23.9 nM.

Source of the values: paper PMC3688267 (Nature structural & molecular biology, 2011).
